The record followed here is patent publication US20110002929A1 (Ablynx, published 2011).

In experiment [1] the target is T1, human RANK-L, full length, membrane-bound, expressed on HEK293T cells (human, UniProt O14788 1-317).
T1 construct: whole, on cells; also called hRANK-L
T1 sequence (looked up): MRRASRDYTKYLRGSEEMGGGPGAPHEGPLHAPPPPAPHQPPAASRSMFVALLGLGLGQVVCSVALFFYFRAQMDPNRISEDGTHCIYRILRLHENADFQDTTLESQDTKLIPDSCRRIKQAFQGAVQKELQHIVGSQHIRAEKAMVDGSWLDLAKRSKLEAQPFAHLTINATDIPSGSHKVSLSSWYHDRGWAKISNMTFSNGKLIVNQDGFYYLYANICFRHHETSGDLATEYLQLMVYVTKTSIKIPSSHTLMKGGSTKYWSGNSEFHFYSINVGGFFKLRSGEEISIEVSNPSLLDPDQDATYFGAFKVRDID
Nature of the experiment: FACS, HEK293T with human RANK-L, 80 pM Nanobody. The protocol:
(§1) Human embryonic kidney cells (HEK293T) were grown in Dulbecco's modified Eagles's medium supplemented with 10% fetal bovine serum (FBS), […] L-glutamine, 0.4 mM sodium pyruvate. […] After 48 hours, transfected cells were subjected to FACS analysis. […] Then cells were washed three times with FACS buffer. Bound Nanobodies were detected by subsequent incubations of a primary mouse anti Myc antibody (30 min at 4° C. (2 μg/ml)) and a second incubation with goat anti mouse-Phycoerythrin (PE) (Jackson Laboratories) for another 30 min at 4° C. Finally, after washing, the cells were resuspended in PBS+10% FBS+TO-PRO®-3 (5 nM) (Molecular Probes®, Invitrogen, Merelbeke, Belgium) and cell surface fluorescence expressed as mean PE fluorescence, was measured using flow cytometry.

A further experiment addresses T2, mouse RANK-L (mouse, UniProt O35235 158-316, limits assumed).
T2 construct: also called murine RANK-L
T2 sequence (looked up): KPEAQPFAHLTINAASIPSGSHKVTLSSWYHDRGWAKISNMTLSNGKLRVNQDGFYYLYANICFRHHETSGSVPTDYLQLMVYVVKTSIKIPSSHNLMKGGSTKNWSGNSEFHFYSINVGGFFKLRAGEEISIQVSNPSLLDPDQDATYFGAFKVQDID
Put plainly: ELISA, set-up as for human RANK-L. In a few lines: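 Nanobodies at 500 nM to 160 pM in 1% casein/PBS incubated 1 h at room temperature; binding detected via anti-myc then anti-mouse-HRP with TMB, OD 450 nm.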

Experiment [2] has as its target T3, human RANK-L (human, UniProt O14788 140-317, limits assumed).
T3 construct: Soluble protein, used coated, biotinylated or labelled in ELISA, AlphaScreen, FMAT and Biacore; also called hRANK-L; soluble human RANK-L
T3 sequence (looked up): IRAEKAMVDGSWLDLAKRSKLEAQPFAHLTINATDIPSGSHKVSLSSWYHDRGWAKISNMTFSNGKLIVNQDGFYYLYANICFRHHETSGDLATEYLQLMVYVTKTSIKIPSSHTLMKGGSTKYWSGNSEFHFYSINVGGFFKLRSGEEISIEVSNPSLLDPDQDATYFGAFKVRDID
Put plainly: FMAT, ALEXA647-hRANK-L / RANK on HEK293T cells.

In experiment [3] the target is T3, human RANK-L. Put plainly: AlphaScreen, biotin-hRANK-L / RANK-huFc beads. On the technique in general: In Alpha technology, singlet oxygen from a donor bead excites a nearby acceptor bead.
A further experiment concerns the target T4, TRAIL (UniProt P50591 114-281, limits assumed).
T4 construct: also called tumor necrosis factor-related apoptosis inducing ligand
Put plainly: competition ELISA on RANK-L-coated plates, 1 nM Nanobody preincubated with the ligand. For orientation: ELISA stands for enzyme-linked immunosorbent assay.

The next experiment concerns the target T5, CD40 ligand (UniProt P29965 113-261, limits assumed).
T5 sequence (looked up): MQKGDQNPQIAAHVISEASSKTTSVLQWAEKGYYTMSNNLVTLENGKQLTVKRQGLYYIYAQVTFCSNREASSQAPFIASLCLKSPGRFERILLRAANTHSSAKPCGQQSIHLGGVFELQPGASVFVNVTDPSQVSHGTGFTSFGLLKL
The experiment is described as above.

Another experiment concerns the target T6, TNFα (UniProt P01375 77-233).
T6 construct: also called TNF-alpha
The description is as above.

For experiment [4], the target named is T1, human RANK-L, full length, …. Nature of the experiment: FACS, HEK293T with human RANK-L, 3.2 pM Nanobody. As for the experimental part: as §1
(A flow cytometer gives signals particle by particle.)

Experiment [5] shares this target. Nature of the experiment: FACS, HEK293T with human RANK-L, 400 pM Nanobody. As for the experimental part: as §1
Experiment [6] addresses T3, human RANK-L. Put plainly: cell-based or functional assay.
The target in experiment [7] is T1, human RANK-L, full length, …. Nature of the experiment: FACS, HEK293T with human RANK-L, 2000 pM Nanobody. The protocol: as §1

T4 sequence (P50591 114-281 limits assumed): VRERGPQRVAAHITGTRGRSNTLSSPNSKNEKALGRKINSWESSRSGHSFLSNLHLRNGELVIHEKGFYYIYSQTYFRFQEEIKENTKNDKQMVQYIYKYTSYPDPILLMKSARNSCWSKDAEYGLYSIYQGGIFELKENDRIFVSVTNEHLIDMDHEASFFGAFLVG
T6 sequence (P01375 77-233 limits assumed): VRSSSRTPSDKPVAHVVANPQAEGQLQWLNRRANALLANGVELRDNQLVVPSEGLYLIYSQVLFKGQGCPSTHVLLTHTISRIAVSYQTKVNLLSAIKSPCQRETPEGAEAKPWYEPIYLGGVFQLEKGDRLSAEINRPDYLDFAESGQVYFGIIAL

B1: RANKL18 (VHH, not shown: small tags and cut ends)
VHH: EVQLVESGGGLVQAGGSLRLSCAASGRTFSRSAMGWFRQAPGKEREFVGFITGSGGTTYYGESVKGRFTISRDNAQNPVYLQMNSLKPEDTAVYYCGVYRRTYISSTYSESSEYDYWGQGTQVTVSS
As to B1, the PE mean fluorescence worked out at 649 in experiment [1], 105 in experiment [4], 2330 in experiment [5] and 7630 in [7]. The binding result is reported as “no binding (tested: 500 nM to 160 pM)” in the experiment with mouse RANK-L, “no binding (tested: approximately 100 nM)” with TRAIL, “no binding (tested: approximately 100 nM)” with CD40 ligand and “no binding (tested: approximately 100 nM)” in the experiment with TNFα. The IC50 (as a rule, the concentration that gives 50% inhibition) with human RANK-L [2] was 0.253 nM; in the experiment with human RANK-L [3], 0.292 nM. For the same molecule, the “RANK-L induced NF-kappaB activation (luciferase reporter, HEK293T cells), IC50” value with human RANK-L [6] worked out at 15.2 nM.

B2: RANKL13 (VHH, not shown: small tags and cut ends)
VHH: EVQLVESGGGLVQAGGSLRLSCAASGRTFRSYPMGWFRQAPGKEREFVASITGSGGSTYYADSVKGRFTISRDNAKNTVYLQMNSLRPEDTAVYSCAAYIRPDTYLSRDYRKYDYWGQGTQVTVSS
Consider B2, for which the PE mean fluorescence came to 1530 in experiment [1], 220 in experiment [4], 5220 in experiment [5] and 13900 in [7]. Also, the binding result is recorded as “no binding (tested: 500 nM to 160 pM)” with mouse RANK-L, “no binding (tested: approximately 100 nM)” with TRAIL, “no binding (tested: approximately 100 nM)” in the experiment with CD40 ligand and “no binding (tested: approximately 100 nM)” with TNFα. Moreover, the IC50 was found to be 0.264 nM with human RANK-L [2] and 0.174 nM with human RANK-L [3]. The “RANK-L induced NF-kappaB activation (luciferase reporter, HEK293T cells), IC50” value with human RANK-L [6] is 6.21 nM.
